Measurements from patent publication US20230393144A1 (I MAB BIOPHARMA US, published 2023).

Target: T1, anti-CD47 antibody TJC4
T1 construct: Tested as whole antibody; It was detected with an anti-human IgG4 secondary antibody, so it is human IgG4; also called therapeutic anti-CD47 antibody
Test: indirect ELISA / blocking IC50 of the purified hybridoma antibody against anti-CD47 TJC4
Source text: The binding of the anti-idiotypic antibodies generated in Examples 2 and 3 to anti-CD47 TJC4 antibody was characterized by indirect ELISA assay, and the IC₅₀ of the anti-idiotypic antibodies was used as a measure of their potential effectiveness in reducing interference by a therapeutic anti-CD47 antibody in a serological assay. Lower IC₅₀ values indicated stronger blocking ability. […] The IC₅₀ value for 9F9H11H8, and, therefore, the blocking ability of 9F9H11H8, was better than those of 37F8C4G12 and 34D8H11B5 (i.e., anti-idiotypic antibodies produced by other hybridoma clones).

T1 sequence (VH, as listed by the source, chain 1 of 2): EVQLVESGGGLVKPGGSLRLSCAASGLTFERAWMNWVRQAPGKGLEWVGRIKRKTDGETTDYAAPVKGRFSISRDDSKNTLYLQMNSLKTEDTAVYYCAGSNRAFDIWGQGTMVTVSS
T1 sequence (VL, as listed by the source, chain 2 of 2): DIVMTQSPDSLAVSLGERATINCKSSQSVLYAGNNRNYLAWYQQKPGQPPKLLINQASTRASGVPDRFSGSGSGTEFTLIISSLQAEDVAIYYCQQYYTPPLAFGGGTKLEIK

IC50: 0.382 µg/mL
B1: anti-idiotypic antibody 9F9H11H8 (antibody, V domains shown)
VH: QIQLVQSGPELKKPGETVKISCKASGFTFTNYGMNWVRQAPGKGLKWMGWINTYTGQPTHADDFKGRFAFSLETSARTAFLEINSLQNEDTATYFCARGGMGVRLRYFDVWGAGTTVTVSS
VL: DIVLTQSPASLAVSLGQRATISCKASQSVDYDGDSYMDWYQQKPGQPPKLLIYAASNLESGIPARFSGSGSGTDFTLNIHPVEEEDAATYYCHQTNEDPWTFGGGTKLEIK
notes: also called 9F9H11F8
